Measured values taken from the Human Domainome abundance scans (Beltran et al. 2025).

B1: Tumor protein 63, residues 545 to 610; numbered along this chain, Q9H3D4 (parent)
chain: TDCSIVSFLARLGCSSCLDYFTTQGLTTIYQIEHYSMDDLASLKIPEQFRHAIWKGILDHRQLHEF

Variants of: B1
Assay: abundance fitness (aPCA) (normalised: wild type 0, dead -1); higher = more abundant; growth selection in yeast, the domain comes from the species named
Settings: Homo sapiens

Abundance fitness of substitutions, site by site:
A10: G -0.1 | C -0.214 | N -0.146
L12: C -0.087 | K -0.146 | V -0.047 | N -0.107 | Y -0.048 | F -0.149 | H -0.099 | Q -0.074 | W -0.072 | A -0.068 | M -0.05 | T -0.06 | E -0.285 | S -0.119 | I 0.021 | P -0.726 | G -0.648 | R -0.112 | D -0.836
C14: R -0.222 | K -0.125 | H -0.12 | W -0.61 | P -0.889 | V -0.027 | E -0.42 | I -0.068 | M -0.014 | Y -0.076 | T -0.143 | S -0.128 | F -0.111 | N -0.34 | L 0.023
C17: R -0.838 | I -0.124 | N -0.359 | G -0.584 | E -0.377 | M -0.025 | Y -0.323 | S -0.164 | K -0.619 | L -0.085 | H -0.525 | P -0.784 | D -1.05 | V -0.077 | F -0.299 | Q -0.147 | T -0.087
G25: P -0.885 | R -0.093 | Q -0.116 | N -0.048 | S -0.062 | V -0.866 | F -0.549 | H -0.099 | A -0.118 | L -0.582 | T -0.401 | E -0.067 | C -0.143 | M -0.362 | I -1
S7: R -0.086 | L -0.137 | K -0.028 | M -0.108 | Y -0.053 | W -0.132 | G -0.045 | T -0.012 | Q -0.067 | P -0.113 | I -0.234 | N -0.006 | H -0.069 | F -0.082 | E -0.024 | D -0.056 | C -0.026
S16: Y -0.156 | F -0.106 | C 0.016 | A -0.037 | R -0.092 | P -0.006 | H -0.059 | T -0.073 | G -0.023 | K -0.12 | D -0.012 | I -0.089 | W -0.165 | E -0.033
T23: D -0.027 | Q 0 | K -0.008 | M -0.01 | W -0.105 | Y -0.096 | A -0.023 | N 0.002 | L -0.03 | C -0.037 | I -0.072 | G -0.004 | V -0.044 | P -0.093 | S -0.037 | E -0.02 | H 0.076 | R -0.02
R11: M -0.111 | N -0.093 | V -0.171 | F -0.268 | E -0.038 | K -0.02 | I -0.126 | Y -0.221 | G -0.071 | H -0.127 | C -0.155 | T -0.023 | D -0.09 | Q -0.08 | P -0.133
F21: S -0.773 | G -0.986 | C -1.01 | H -0.975 | Q -0.965 | Y -0.85 | V -1 | W -1.04 | I -0.737 | T -1.13 | L -0.56 | E -0.983 | D -1.03 | A -1.02 | K -1.15 | N -0.962 | R -0.964
T22: G -0.1 | W -0.096 | F -0.102 | H -0.04 | N -0.066 | M -0.098 | A -0.023 | P -0.78 | E -0.014 | D -0.039 | Y -0.177 | K -0.017 | V -0.036 | C -0.166 | L -0.021 | I -0.027 | Q -0.026
